The assay addresses RBD-ferritin fusion protein (SARS-CoV-2 spike RBD-… linker-H. pylori-bullfrog ferritin) (SARS-CoV-2 Wuhan-Hu-1 strain | bullfrog (Rana catesbeiana) | Helicobacter pylori). Description: SEC; concentrated supernatant (500-kDa MWCO TFF) on HiPrep 16/60 Sephacryl S-500 HR, degassed PBS, 0.4 ml/min; size from LMW/HMW calibration standards; self-assembly of the monomer into the nanoparticle.

“RBD-ferritin fusion protein (SARS-CoV-2 spike RBD-… linker-H. pylori-bullfrog ferritin)” gave a stoichiometry N of 24.

Source of the values: article PMC8092224.
